Measurements: patent US20130252983

How the values were obtained:
[1] = tested on: V5-tagged wild-type mouse glutaminase C (GAC)
[2] = tested on: GAC (S103A), phospho-defective mutant of mouse glutaminase C
[3] = tested on: GACΔC, C-terminal truncation mutant of mouse glutaminase C
GACΔC, C-terminal truncation mutant of mouse glutaminase C, sequence (chain, as listed by the source mutant): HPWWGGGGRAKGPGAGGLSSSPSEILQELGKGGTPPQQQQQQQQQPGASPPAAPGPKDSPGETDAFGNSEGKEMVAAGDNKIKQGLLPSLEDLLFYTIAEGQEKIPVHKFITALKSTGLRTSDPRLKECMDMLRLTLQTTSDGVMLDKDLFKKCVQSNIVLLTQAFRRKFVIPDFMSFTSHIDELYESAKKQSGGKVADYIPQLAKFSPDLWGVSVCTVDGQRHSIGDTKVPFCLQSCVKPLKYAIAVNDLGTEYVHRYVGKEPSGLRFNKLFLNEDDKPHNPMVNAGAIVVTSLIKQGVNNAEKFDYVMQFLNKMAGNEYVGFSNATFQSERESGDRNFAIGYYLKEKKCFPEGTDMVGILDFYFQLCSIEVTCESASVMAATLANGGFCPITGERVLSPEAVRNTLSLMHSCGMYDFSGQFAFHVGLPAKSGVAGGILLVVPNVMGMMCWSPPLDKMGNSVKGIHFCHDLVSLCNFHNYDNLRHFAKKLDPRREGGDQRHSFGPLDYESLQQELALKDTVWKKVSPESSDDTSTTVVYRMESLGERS

V5-tagged wild-type mouse glutaminase C (GAC), sequence (chain, as listed by the source): as the sequence (chain, as listed by the source mutant) above
GAC (S103A), phospho-defective mutant of mouse glutaminase C, sequence (chain, as listed by the source S103A): as the sequence (chain, as listed by the source mutant) above, with S49A counted along it

mTOR (mammalian target of rapamycin)
phosphorylation of proteins immunoprecipitated with GAC after addition of radio-labeled ATP under conditions favorable for the activation of the mTOR kinase [1]: the phosphorylation of proteins immunoprecipitated with wild-type GAC and GACΔC is observed | phosphorylation of proteins immunoprecipitated with GAC after addition of radio-labeled ATP under conditions favorable for the activation of the mTOR kinase [2]: but not for proteins immunoprecipitated with GAC (S103A) | phosphorylation of proteins immunoprecipitated with GAC after addition of radio-labeled ATP under conditions favorable for the activation of the mTOR kinase [3]: the phosphorylation of proteins immunoprecipitated with wild-type GAC and GACΔC is observed
